In patent US20090142281A1, “Composition Comprising A Coupled Enzyme System” (priority 2005, published 2009):

Key:
[1] = cited from earlier work
[2] = In gel overlay activity assay (PMS/NBT) using sorbitol as substrate; format: biochemical; conditions: native gel
From the text: b) In gel overlay activity assay (PMS/NBT) using sorbitol as substrate.
The cell lysates were fractionated on a native gel that was further tested in an in-gel overlay activity assay using sorbitol as the substrate and an assay based on the PMS mediated reduction of NBT. […] The PMS/NBT is a diagnostic assay for flavoproteins where PMS=phenazine methosulfate is a redox mediator which is reduced by reduced FAD.

B1: sorbitol oxidase from Streptomyces species H-7775: sorbitol oxidase of Streptomyces sp. H-7775, SEQ ID NO 1, 420 amino acids (protein)
chain: MTPAEKNWAGNITFGAKRLCVPRSVRELRETVAASGAVRPLGTRHSFNTVADTSGDHVSLAGLPRVVDIDVPGRAVSLSAGLRFGEFAAELHARGLALANLGSLPHISVAGAVATGTHGSGVGNRSLAGAVRALSLVTADGETRTLRRTDEDFAGAVVSLGALGVVTSLELDLVPAFEVRQWVYEDLPEATLAARFDEVMSAAYSVSVFTDWRPGPVGQVWLKQRVGDEGARSVMPAEWLGARLADGPRHPVPGMPAGNCTAQQGVPGPWHERLPHFRMEFTPSNGDELQSEYFVARADAVAAYEALARLRDRIAPVLQVSELRTVAADDLWLSPAHGRDSVAFHFTWVPDAAAVAPVAGAIEEALAPFGARPHWGKVFSTAPEVLRTLYPRYADFEELVGRHDPEGTFRNAFLDRYFRR
modifications: Streptomyces sp. H7775
[1]; 24 hours at 30° C.
  pH range of stability: 7.5-10 pH
[1]; at pH 7.5
  optimum temperature: 50 °C
[2]
  activity towards sorbitol (stained band): has activity towards sorbitol
